According to paper PMC8049779 (Biochemistry, 2020):
Positions count from the first letter of the chain named. In names and notes the source's numbering stands.

T1: LmFPPS (Leishmania major, UniProt Q4QBL1)
T1 sequence (Q4QBL1 1-362): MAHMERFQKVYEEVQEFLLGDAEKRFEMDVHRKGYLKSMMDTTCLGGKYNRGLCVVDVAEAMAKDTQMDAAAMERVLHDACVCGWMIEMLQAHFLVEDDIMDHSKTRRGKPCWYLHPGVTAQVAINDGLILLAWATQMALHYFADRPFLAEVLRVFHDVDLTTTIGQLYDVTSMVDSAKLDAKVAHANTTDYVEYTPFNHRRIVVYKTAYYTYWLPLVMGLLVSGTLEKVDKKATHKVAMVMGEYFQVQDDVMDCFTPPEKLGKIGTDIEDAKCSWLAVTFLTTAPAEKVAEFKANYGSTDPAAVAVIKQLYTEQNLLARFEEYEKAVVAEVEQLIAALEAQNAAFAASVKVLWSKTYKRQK

B1: E97Y-LmFPPS (Leishmania major farnesyl diphosphate synthase, E97Y mutant) (enzyme)
chain: T1 sequence (Q4QBL1 1-362) with E97Y
B2: T164Y-LmFPPS (Leishmania major farnesyl diphosphate synthase, T164Y mutant) (enzyme)
chain: T1 sequence (Q4QBL1 1-362) with T164Y
B3: T164W-LmFPPS (Leishmania major farnesyl diphosphate synthase, T164W mutant) (enzyme)
chain: T1 sequence (Q4QBL1 1-362) with T164W

Key:
LmFPPS = molecular target: T1, LmFPPS; assay: SPR, steady-state affinity, protein immobilized on CM5 chip; format: binding
crystal structure = molecular target: the molecule itself; assay: crystal structure

Molecule | Kd (LmFPPS) [µM] | binding result (crystal structure)
CC(C)=CCC/C(C)=C/COP(=O)(O)OP(=O)(O)O [GPP] | 0.049 | –
CC(C)=CCC/C(C)=C/CC/C(C)=C/CO[P@@](=O)(O)OP(=O)(O)O [FPP] | 36.6 | –
B1 | – | binds
B2 | – | binds
B3 | – | binds
